The values below come from article PMC3248895.

This assay concerns the target polymerized nonmuscle actin (F-actin) (UniProt P60709). Description: co-sedimentation.

Consider “GST-connecdenn 3 789–801 wild type (from UniProt Q8IV53 789-801) (peptide)”, for which the Kd (in general, the constant that tells how readily two partners part at equilibrium) came out at 10.7 µM.
